Experiments:
[1] = molecular target: tissue factor reagent of the Tissue Factor Activity Assay Kit (Abcam #ab108906) (UniProt P13726 33-295, limits assumed); experiment: cell-based or functional assay
[2] = molecular target: T1, human tissue factor (human TF, Lake Pharma) (human, UniProt P13726 33-251, limits assumed); experiment: Biacore SPR, single-point off-rate (100 nM antigen), antibody captured on anti-Fc
T1 construct: bought recombinant antigen; also called CD142
Protocol: (§1) Anti-Fc polyclonal antibodies were immobilized onto a CM4 chip (Cytiva #BR100534) using amine coupling chemistry (Human Antibody Capture Kit, Cytiva #BR100839). The immobilization steps were carried out at a flow rate of 25 μL/min in 1×HBS-EP+buffer (Cytiva #BR100669). The sensor surfaces were activated for 7 min with a mixture of N-hydroxysuccinimide (NHS, 0.05 M) and 1-ethyl-3-(3-dimethylaminopropyl)-carbodiimide (EDC, 0.2 M). The anti-Fc polyclonal antibodies were injected over all 4 flow cells at a concentration of 25 μg/mL in 10 mM sodium acetate, pH 4.5, for 7 min. Ethanolamine (1 M, pH 8.5) was injected for 7 min to block any remaining activated groups.
(§2) Off-rate and kinetic binding experiments were performed at 25° C. using 1×HBS-EP+buffer. Antibodies were injected over the anti-Fc surface at a concentration of 3 μg/mL for 12 seconds at a flow rate of 10 μL/min on flow cells 2, 3 and 4, followed by a buffer wash for 30 seconds at the same flow rate. Single point off-rate analysis was carried out using an antigen concentration of 100 nM. […] After capturing ligand (antibody) on the anti-Fc surface, the analyte (human TF, Lake Pharma; cynomolgus TF, Sino Bio #90885-C08H; mouse TF, R&D Systems #3178-PA) was bound for 180 seconds, followed by a 420 second dissociation phase at a flow rate of […]. Between each ligand capture and analyte binding cycle, regeneration was carried out using 2 injections of 10 mM glycine pH 2.0 for 30 seconds at 30 μL/min, followed by a 30 second buffer wash step.

[3] = molecular target: T2, cynomolgus tissue factor (cynomolgus TF, Sino Bio #90885-C08H) (cynomolgus monkey, UniProt P13726 33-251 (human entry)); experiment: as above
T2 construct: bought recombinant antigen; also called cyno TF
T2 chain: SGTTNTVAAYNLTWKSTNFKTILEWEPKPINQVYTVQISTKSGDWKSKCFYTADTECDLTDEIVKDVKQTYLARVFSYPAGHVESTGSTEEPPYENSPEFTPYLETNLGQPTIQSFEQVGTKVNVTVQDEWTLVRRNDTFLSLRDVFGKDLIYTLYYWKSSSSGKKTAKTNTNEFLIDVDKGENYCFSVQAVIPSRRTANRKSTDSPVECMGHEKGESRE
Protocol: as §1, §2

B1: SRP2900-A02 (antibody, IgG1, V domains shown)
VH: MEVQLVESGGGLVQPGGSLRLSCAASGFTISGYIIHWVRQAPGKGLEWVGYIDPSNGYTYYADSVKGRFTISADTSKNTAYLQMNSLRAEDTAVYYCARDDQSLSSPFDYWGQGTLVTVSS
VL: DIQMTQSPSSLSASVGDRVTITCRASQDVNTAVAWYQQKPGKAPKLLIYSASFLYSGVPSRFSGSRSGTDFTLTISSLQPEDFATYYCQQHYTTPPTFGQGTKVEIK
[1]
  FX conversion (% inhibition), 1000 nM antibody: 0.21%
[2]
  koff: 0.00116 s⁻¹
[3]
  koff: 0.000761 s⁻¹

B2: SRP2900-E07 (antibody, IgG1, V domains shown)
VH: EVQLVESGGGLVQPGGSLRLSCAASGFTISQYWIHWVRQAPGKGLEWVGYIDPYNGYTYYADSVKGRFTISADTSKNTAYLQMNSLRAEDTAVYYCARDYGSLRVSLDYWGQGTLVTVSS
VL: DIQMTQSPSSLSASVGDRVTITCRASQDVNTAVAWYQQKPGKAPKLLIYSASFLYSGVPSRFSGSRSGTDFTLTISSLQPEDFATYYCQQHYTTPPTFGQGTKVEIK
[1]
  FX conversion (% inhibition), 1000 nM antibody: 15.6%
[2]
  koff: 0.000511 s⁻¹
[3]
  koff: 0.00113 s⁻¹

B3: SRP2900-E02 (antibody, IgG1, V domains shown)
VH: EVQLVESGGGLVQPGGSLRLSCAASGFTISDYVIHWVRQAPGKGLEWVGYIDPSNGYTYYADPVKGRFTISADTSKNTAYLQMNSLRAEDTAVYYCARDPQSFYIAFDYWGQGTLVTVSS
VL: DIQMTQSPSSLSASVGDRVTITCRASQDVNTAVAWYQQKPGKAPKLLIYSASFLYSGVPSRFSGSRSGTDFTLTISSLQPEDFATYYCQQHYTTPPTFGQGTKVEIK
[1]
  FX conversion (% inhibition), 1000 nM antibody: 17.7%
[2]
  koff: 0.000528 s⁻¹
[3]
  koff: 0.00182 s⁻¹

B4: SRP2900-F09 (antibody, IgG1, V domains shown)
VH: EVQLVESGGGLVQPGGSLRLSCAASGFTIHDYVIHWVRQAPGKGLEWVGYIDPSNGYTYYADSVKGRFTISADTSKNTAYLQMNSLRAEDTAVYYCARDDQSISSPLDYWGQGTLVTVSS
VL: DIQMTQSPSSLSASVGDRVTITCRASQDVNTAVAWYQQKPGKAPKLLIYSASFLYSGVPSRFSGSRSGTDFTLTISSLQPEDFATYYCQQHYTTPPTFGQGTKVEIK
[1]
  FX conversion (% inhibition), 1000 nM antibody: 5.23%
[2]
  koff: 0.00139 s⁻¹
[3]
  koff: 0.00215 s⁻¹

B5: SRP2900-F08 (antibody, IgG1, V domains shown)
VH: EVQLVESGGGLVQPGGSLRLSCAASGFTIAYYIIHWVRQAPGKGLEWVGYIDPSNGYTYYADSVKGRFTISADTSKNTAYLQMNSLRAEDTAVYYCARDDQSLSSPFDYWGQGTLVTVSS
VL: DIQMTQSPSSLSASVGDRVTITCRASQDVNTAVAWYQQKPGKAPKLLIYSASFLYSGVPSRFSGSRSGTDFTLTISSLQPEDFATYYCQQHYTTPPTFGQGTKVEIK
[1]
  FX conversion (% inhibition), 1000 nM antibody: 9.78%
[2]
  koff: 0.00131 s⁻¹
[3]
  koff: 0.000665 s⁻¹

B6: SRP2900-H09 (antibody, IgG1, V domains shown)
VH: EVQLVESGGGLVQPGGSLRLSCAASGFTISDYVIHWVRQAPGKGLEWVGYIDPSNGYTYYADSVKGRFTISADTSKNTAYLQMNSLRAEDTAVYYCARDDQSISSPLDYWGQGTLVTVSS
VL: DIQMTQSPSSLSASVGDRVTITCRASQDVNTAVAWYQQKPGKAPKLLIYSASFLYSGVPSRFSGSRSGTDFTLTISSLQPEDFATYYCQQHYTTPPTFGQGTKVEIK
[1]
  FX conversion (% inhibition), 1000 nM antibody: 4.48%
[2]
  koff: 0.00169 s⁻¹
[3]
  koff: 0.00584 s⁻¹

B7: SRP2900-H06 (antibody, IgG1, V domains shown)
VH: EVQLVESGGGLVQPGGSLRLSCAASGFTIAAYIIHWVRQAPGKGLEWVGYIDPSNGYTYYADSVKGRFTISADTSKNTAYLQMNSLRAEDTAVYYCARDDQSFSSPFDYWGQGTLVTVSS
VL: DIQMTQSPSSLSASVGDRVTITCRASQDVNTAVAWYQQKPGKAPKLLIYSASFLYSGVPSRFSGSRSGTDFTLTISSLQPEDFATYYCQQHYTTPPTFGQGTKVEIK
[1]
  FX conversion (% inhibition), 1000 nM antibody: 4.04%
[2]
  koff: 0.00347 s⁻¹
[3]
  koff: 0.000648 s⁻¹

B8: SRP2900-F06 (antibody, IgG1, V domains shown)
VH: EVQLVESGGGLVQPGGSLRLSCAASGFTISIYTIHWVRQAPGKGLEWVGYIDPSNGYTYYADSVKGRLTISADTSKNTAYLQMNSLRAEDTAVYYCARDPQSISSPFDYWGQGTLVTVSS
VL: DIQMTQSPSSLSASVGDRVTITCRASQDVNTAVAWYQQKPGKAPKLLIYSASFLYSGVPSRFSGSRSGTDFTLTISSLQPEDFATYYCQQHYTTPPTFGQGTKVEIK
[1]
  FX conversion (% inhibition), 1000 nM antibody: 1.72%
[2]
  koff: 0.00423 s⁻¹
[3]
  koff: 0.00184 s⁻¹

B9: SRP2900-G03 (antibody, IgG1, V domains shown)
VH: EVQLVESGGGLVQPGGSLRLSCAASGFTINNYIIHWVRQAPGKGLEWVGYIDPSNGYTYYADSVKGRFTISADTSKNTAYLQMNSLRAEDTAVYYCARDPQSLSSPFDYWGQGTLVTVSS
VL: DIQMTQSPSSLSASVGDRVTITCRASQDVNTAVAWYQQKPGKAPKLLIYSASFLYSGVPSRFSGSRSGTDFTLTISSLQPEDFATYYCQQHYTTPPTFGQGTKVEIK
[1]
  FX conversion (% inhibition), 1000 nM antibody: 20%
[2]
  koff: 0.000699 s⁻¹
[3]
  koff: 0.00195 s⁻¹

B10: SRP2900-H07 (antibody, IgG1, V domains shown)
VH: EVQLVESGGGLVQPGGSLRLSCAASGFNIAYYTIHWVRQAPGKGLEWVGYIDPSNGYTYYADSVKGRFTISADTSKNTAYLQMNSLRAEDTAVYYCARDPQSFSSPFDYWGQGTLVTVSS
VL: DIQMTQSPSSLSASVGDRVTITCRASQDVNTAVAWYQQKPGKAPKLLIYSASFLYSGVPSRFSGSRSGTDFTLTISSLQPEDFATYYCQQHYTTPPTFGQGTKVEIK
[1]
  FX conversion (% inhibition), 1000 nM antibody: 13.5%
[2]
  koff: 0.00205 s⁻¹
[3]
  koff: 0.0013 s⁻¹

B11: SRP2900-E06 (antibody, IgG1, V domains shown)
VH: EVQLVESGGGLVQPGGSLRLSCAASGFTISGYIIHWVRQAPGKGLEWVGYIDPSNGYTYHADSVKGRFTISADTSKNTAYLQMNSLRAEDTAVYYCARDDQSVSSPFDYWGQGTLVTVSS
VL: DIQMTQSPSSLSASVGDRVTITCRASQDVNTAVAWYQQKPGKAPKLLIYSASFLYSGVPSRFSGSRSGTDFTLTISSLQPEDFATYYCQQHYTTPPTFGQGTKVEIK
[1]
  FX conversion (% inhibition), 1000 nM antibody: 18.7%
[2]
  koff: 0.000978 s⁻¹
[3]
  koff: 0.000689 s⁻¹

B12: SRP2900-G05 (antibody, IgG1, V domains shown)
VH: EVQLVESGGGLVQPGGLLRLSCAASGFTIAYYVIHWVRQAPGKGLEWVGYIDPSNGYTYYADSVKGRFTISADTSKNTAYLQMNSLRAEDTAVYYCARDDQSLSSPFDYWGQGTLVTVSS
VL: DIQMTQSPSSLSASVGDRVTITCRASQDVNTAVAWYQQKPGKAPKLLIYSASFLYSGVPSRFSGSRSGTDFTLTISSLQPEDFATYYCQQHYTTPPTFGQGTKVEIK
[1]
  FX conversion (% inhibition), 1000 nM antibody: 12.1%
[2]
  koff: 0.00115 s⁻¹
[3]
  koff: 0.000667 s⁻¹

B13: SRP2900-F11 (antibody, IgG1, V domains shown)
VH: EVQLVESGGGLVQPGGSLRLSCAASGFTISGYIIHWVRQAPGKGLEWVGYIDPSNGYTFYADSVKGRFTISADTSKNTAYLRMNSLRAEDTAVYYCARDDQSLSSPFDYWGQGTLVTVSS
VL: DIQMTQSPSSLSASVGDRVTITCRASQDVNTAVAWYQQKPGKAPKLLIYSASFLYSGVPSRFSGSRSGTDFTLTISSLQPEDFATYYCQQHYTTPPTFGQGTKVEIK
[1]
  FX conversion (% inhibition), 1000 nM antibody: 6.38%
[2]
  koff: 0.00204 s⁻¹
[3]
  koff: 0.00115 s⁻¹

B14: SRP2900-F02 (antibody, IgG1, V domains shown)
VH: EVQLVESGGGLVQPGGSLRLACAASGFTIGVYIIHWVRQAPGKGLEWVGYIDPSNGYTYYADSVKGRFTISADTSKNTAYLQMNSLRAEDTAVYYCARDDQSVSSPFDYWGQGTLVTVSS
VL: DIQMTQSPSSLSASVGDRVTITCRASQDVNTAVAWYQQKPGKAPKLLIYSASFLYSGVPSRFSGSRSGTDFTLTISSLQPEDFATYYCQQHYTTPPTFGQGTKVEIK
[1]
  FX conversion (% inhibition), 1000 nM antibody: 0.23%
[2]
  koff: 0.00274 s⁻¹
[3]
  koff: 0.000696 s⁻¹

B15: SRP2900-G02 (antibody, IgG1, V domains shown)
VH: EVQLVESGGDLVRPGGSLRLSCAASGFTISYYIIHWVRQAPGKGLEWVGYIDPSNGYTYYADSVKGRFTISADTSKNTAYLQMNSLRAEDTAVYYCARDDQSVSSPFEYWGQGTLVTVSS
VL: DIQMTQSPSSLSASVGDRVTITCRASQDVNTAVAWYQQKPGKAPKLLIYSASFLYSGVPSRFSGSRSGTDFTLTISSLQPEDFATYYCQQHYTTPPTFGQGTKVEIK
[1]
  FX conversion (% inhibition), 1000 nM antibody: -0.11%
[2]
  koff: 0.00415 s⁻¹
[3]
  koff: 0.00141 s⁻¹

B16: SRP2900-C11 (antibody, IgG1, V domains shown)
VH: EVQLVESGGGLVQPGGSLRLSCAASGFTISQYWIHWVRQAPGKGLEWVGYIDPYNGYTYYADSVKGRFTISADTSKNTAYLQMNSLRAEDTAVYYCARDYGSWRIRLDYWGQGTLVTVSS
VL: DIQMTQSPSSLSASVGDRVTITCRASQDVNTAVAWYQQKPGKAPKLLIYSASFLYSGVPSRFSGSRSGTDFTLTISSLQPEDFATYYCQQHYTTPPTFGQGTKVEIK
[1]
  FX conversion (% inhibition), 1000 nM antibody: 12.4%
[2]
  koff: 0.000842 s⁻¹
[3]
  koff: 0.00257 s⁻¹

B17: SRP2900-H11 (antibody, IgG1, V domains shown)
VH: EVQLVESGGGLVQPGGSLRLSCAASGFTISSYIIHWVRQAPGKGPEWVGYIDPSNGYTYYADSVKGRFTISADTSKNTAYLQMNSLRAEDTAVYYCARDPQTLTSPFDYWGQGTLVTVSS
VL: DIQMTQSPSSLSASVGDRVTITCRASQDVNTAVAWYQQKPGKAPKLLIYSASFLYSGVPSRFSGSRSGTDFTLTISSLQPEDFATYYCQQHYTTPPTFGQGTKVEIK
[1]
  FX conversion (% inhibition), 1000 nM antibody: -3.63%
[2]
  koff: 0.0025 s⁻¹
[3]
  koff: 0.000946 s⁻¹

B18: SRP2900-C01 (antibody, IgG1, V domains shown)
VH: EVQLVESGGGLVQPGGSLRLSCAASGFTIGSYWIHWVRQAPGKGLEWVGYIDPSNGYTYYADSVKGRFTISADTSKNTAYLQMNSLRAEDTAVYYCARADYYYVDEYWDYWGQGTLVTVSS
VL: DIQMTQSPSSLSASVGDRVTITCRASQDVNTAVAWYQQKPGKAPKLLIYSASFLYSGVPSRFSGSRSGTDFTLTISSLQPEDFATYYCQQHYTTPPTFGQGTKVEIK
[1]
  FX conversion (% inhibition), 1000 nM antibody: 16.4%
[2]
  koff: 0.00183 s⁻¹
[3]
  koff: 0.00118 s⁻¹

— patent publication US20250122306A1 (SUTRO BIOPHARMA, published 2025)
